The values that follow come from patent EP3470428A1 (Numab Innovation AG, dated 2019).

One may read the IC50 as the concentration that gives 50% inhibition. Low readings indicate inhibition by little substance, high ones a need for much substance.

The target of experiment [1] is T1, biotinylated human PD-L1 (human, UniProt Q9NZQ7 19-238, limits assumed, biotinylated).
T1 construct: also called biotinylated PD-L1
The experiment in a line: competition ELISA; coated human PD-1 as competitor; biotinylated human PD-L1 pre-incubated with inhibitor.

The target in experiment [2] is T2, human CD137 expressed on cells (human, UniProt Q07011 24-255). The experiment in a line: cell-based or functional assay.
In experiment [3] the target is T1, biotinylated human PD-L1. The experiment in a line: competition ELISA; coated human B7.1 as competitor; biotinylated PD-L1 pre-incubated with inhibitor. Background: In an ELISA, binding on a coated surface is turned into a signal by an enzyme label.
In experiment [4] the target is T2, human CD137 expressed on cells. In words: cell-based or functional assay. This is another data set of the same source.
Another experiment addresses T3, human serum albumin (human, UniProt P02768 25-609).
T3 construct: Amine-coupled to a CM5 chip; assay at pH 5.5; also called HSA; human SA
In words: SPR (Biacore T200); SA amine-coupled; pH 5.5. (Surface plasmon resonance follows binding to a sensor surface in real time, without labels.)

The target of experiment [5] is T2, human CD137 expressed on cells. The experiment in a line: cell-based or functional assay. This is another data set of the same source.
Experiment [6] concerns the target T1, biotinylated human PD-L1. The experiment in a line: PD-L1/PD-1 competition ELISA with human serum albumin.
The target of experiment [7] is T4, human PD-L1 expressed on cells (human, UniProt Q9NZQ7 19-290). The experiment in a line: cell-based or functional assay.
For experiment [8], the target named is T2, human CD137 expressed on cells. The experiment in a line: cell-based or functional assay. The source holds these as a separate data set.
The target is the same in experiment [9]. In words: cell-based or functional assay. This is another data set of the same source.
Experiment [10] shares this target. In words: cell-based or functional assay. This is another data set of the same source.
For experiment [11] the target is unchanged. The experiment in a line: cell-based or functional assay. The source holds these as a separate data set.
Experiment [12] deals with T4, human PD-L1 expressed on cells. The experiment in a line: cell-based or functional assay. This is another data set of the same source.

B1: PRO1057: 38_02_A04 sc01 scDb-i/33-03-G02 sc01 scDb-o/mxr HSA (23-13-A01-sc03, sk17sh4) (other)
chain: DIQMTQSPSSLSASVGDRVTITCQASQSINDYLAWYQQKPGKAPKLLIYKASTLASGVPSRFSGSGSGTDFTLTISSLQPEDFATYYCQQGYIITDIDNVFGTGTKVTVLGGGGGSQVQLQESGPGLVKPSETLSLTCKVSGFSFSNSYWICWIRQPPGKGLEWIGCTFVGSSDSTYYANWAKGRVTISVDSSKNQFSLKLSSVTAADTAVYYCARHPSDAVYGYANNLWGQGTLVTVSSGGGGSGGGGSGGGGSGGGGSIQMTQSPSSLSASVGDRVTITCQASQSINNVLAWYQQKPGKAPKLLIYRASTLASGVPSRFSGSGSGTDFTLTISSLQPEDFATYYCQSSYGNYGDFGTGTKVTVLGGGGGSQVQLQESGPGLVKPSETLSLTCKVSGFSFSSGYDMCWIRQPPGKGLEWIGCVVAGSVDITYYASWAKGRVTISVDSSKNQFSLKLSSVTAADTAVYYCARKDAYSDAFNLWGQGTLVTVSSGGGGSGGGGSVVMTQSPSSLSASVGDRVTITCQASQIISSRSAWYQQKPGQPPKLLIYQASKLASGVPSRFSGSGSGTDFTLTISSLQPEDFATYYCQCTYIDSNFGAFGGGTKLTVLGGGGGSGGGGSGGGGSGGGGSEVQLVESGGGLVQPGGSLRLSCAASGFSFSSSYWICWVRQAPGKGLEWVGCVFTGDGTTYYASWAKGRFTISRDNSKNTVYLQMNSLRAEDTATYFCARPVSVYYYGMDLWGQGTLVTVSS
notes: Trispecific scTriabody (scDb-scFv)
On to B1, for which the half-maximal inhibitory concentration (IC50) in the experiment with biotinylated human PD-L1 [1] is 0.00861 µg/mL; in the experiment with biotinylated human PD-L1 [3], 0.0163 µg/mL. The “EC50 in ng/ml, CD137 activation, NFkB-luciferase Jurkat reporter assay, PD-L1 expressing CHO cells, 6h, + HSA” value in experiment [2] is 112 ng/mL. The “EC50 in ng/ml, CD137 activation, NFkB-luciferase Jurkat reporter assay, PD-L1 expressing CHO cells, 24h, + HSA” value in experiment [4] was found to be 792 ng/mL. Also, the binding result with human serum albumin is recorded as “binds”. Moreover, in experiment [5], the “EC50 in ng/ml, CD137 activation, NFkB-luciferase Jurkat reporter assay, HCC827 with IFNy stimulation, 24h, +HSA” value stood at 115 ng/mL. Moreover, the “EC50 in ng/ml, CD137 activation, NFkB-luciferase Jurkat reporter assay, HCC827 without IFNy stimulation, 24h, +HSA” value in experiment [5] was 76.6 ng/mL. Also, the “fold change of IC50 in presence of human serum albumin” value with biotinylated human PD-L1 [6] is approximately 2 fold. Besides, in experiment [7], the “IC50 (ng/ml), neutralization of PD-L1/PD-1 interaction, NFAT-luciferase reporter gene assay, with HSA” value was 665 ng/mL. Moreover, in experiment [8], the “max. activation (%), NF-kB reporter gene, CHO-PD-L1; HSA: yes, 24h” value is 663%.

B2: PRO1126: 38-02-A04 sc01 scDb-i/33_03_G02 sc03 Full scDb-o (bispecific antibody)
chain: DFQLTQSPSSLSASVGDRVTITCQASQSINDYLAWYQQKPGKSPKLLIYKASTLASGVPSRFSGSGSGTDFTLTISSLQPEDFATYYCQQGYIITDIDNVFGTGTKVTVLGGGGGSQVQLQESGPGLVKPSETLSLTCKVSGFSFSNSYWICWIRQPPGKGLEWIGCTFVGSSDSTYYANWAKGRVTISVDSSKNQFSLKLSSVTAADTAVYYCARHPSDAVYGYANNLWGQGTLVTVSSGGGGSGGGGSGGGGSGGGGSIQMTQSPSSLSASVGDRVTITCQASQSINNVLAWYQQKPGKAPKLLIYRASTLASGVPSRFSGSGSGTDFTLTISSLQPEDFATYYCQSSYGNYGDFGTGTKVTVLGGGGGSQSQLQESGPGLVKPSETLSLTCKASGFSFSSGYDMCWVRQPPGKGLEWIACVVAGSVDITYYASWAKGRVTISKDSSKNQVSLKLSSVTAADTAVYFCARKDAYSDAFNLWGQGTLVTVSS
notes: scDb, STR graft of the PD-L1 domain
B2: the IC50 with biotinylated human PD-L1 [1] came to 0.00128 µg/mL. For the same molecule, in experiment [9], the “EC50 in ng/ml, CD137 activation, NFkB-luciferase Jurkat reporter assay, HCC827 cells without IFNg” value was determined as 6.97 ng/mL. Also, in experiment [10], the “EC50 in ng/ml, CD137 activation, NFkB-luciferase Jurkat reporter assay, HCC827 cells stimulated with IFNg” value is 5.48 ng/mL. In experiment [11], the “EC50 in ng/ml, CD137 activation, NFkB-luciferase Jurkat reporter assay, CHO-PD-L1 cells” value is 6 ng/mL. The “IC50, neutralization of PD-L1/PD-1 interaction, NFAT-luciferase reporter gene assay” value in [12] stood at 0.0481 µg/mL. In [8], the “max. activation (%), NF-kB reporter gene, CHO-PD-L1; HSA: no” value is 242%; the “max. activation (%), NF-kB reporter gene, HCC827 +IFNg; HSA: no” value was 208%; the “max. activation (%), NF-kB reporter gene, HCC827 -IFNg; HSA: no” value was determined as 135%.
